The target of assay [1] is T1, CD4 on human T cells (human, UniProt P01730 26-458).
T1 construct: whole, on cells
The assay is described as follows: FACS on PBMC, 1 h on ice, detected with anti-6xHis or anti-RANTES (VL-1) antibody. The method, then:
(§1) PBMC were incubated for 1 h on ice with the constructs RM and MR in various concentrations. After washing with PBS, cell bound constructs were detected with an antibody against 6×His (Dianova) or an antibody against RANTES (VL-1) followed by incubation with PE-labelled rabbit-anti-mouse F(ab) fragments (Dako R439). Binding of RM and MR to CD4 on T cells was detected by FACS analysis (FIG. 6A).

A further assay has as its target T2, human CCR5 (human, UniProt P51681 1-352).
T2 construct: whole, on cells; also called CCR5 receptor
The assay is described as follows: told from CCR5 internalization on CD4+ and CD8+ T cells of human PBMC (FACS). The method, then: (§2) RM and MR induced internalization of CCR5 on T cells is shown in FIGS. 7A and 7B, respectively. Human PBMC were incubated for 30 min at 37° C. with various concentrations of RM (FIG. 7A), MR (FIG. 7B) and RANTES and stained on ice for 1 h with a combination of directly conjugated antibodies against CCR5, CD8 and CD4. Mean channel fluorescence (MCF) of CCR5 was quantified on CD4 and CD8 positive T cells by FACS-analysis. Relative surface expression of CCR5 was calculated as [MCF(exp.)-MCF(negative control)]/[(MCF(medium)-MCF(negative control).
as §2, with “Human” for “RM and MR induced internalization of CCR5 on T cells is shown in FIGS. 7A and 7B, respectively. Human”, “RANTES. Cells were then” for “RANTES and”, “CD4 (CCR5-PE, Pharmingen, CD8-Cychrome, Immunotech and CD4-APC, Immunotech). CD4+ and CD8+ T cells were identified by expression of CD4 and CD8 as well as by their light scatter properties.” for “CD4.”

For assay [2], the target named is T1, CD4 on human T cells. Nature of the assay: FACS on PBMC. How it is done:
as §1

T2 sequence (P51681 whole entry): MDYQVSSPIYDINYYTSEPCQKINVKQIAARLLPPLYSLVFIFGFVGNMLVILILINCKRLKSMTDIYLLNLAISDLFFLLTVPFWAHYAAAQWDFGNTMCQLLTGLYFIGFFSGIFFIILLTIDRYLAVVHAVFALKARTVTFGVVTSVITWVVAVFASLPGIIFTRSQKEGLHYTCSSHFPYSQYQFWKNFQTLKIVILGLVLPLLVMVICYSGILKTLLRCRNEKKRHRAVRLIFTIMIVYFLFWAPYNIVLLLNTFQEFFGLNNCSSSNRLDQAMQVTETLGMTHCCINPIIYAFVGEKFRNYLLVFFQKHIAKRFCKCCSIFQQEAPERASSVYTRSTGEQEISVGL

B1: MR construct ((VL) anti-CD4-linker-(VH) anti-CD4-linker-RANTES) (other)
chain: DYKDDDDKDIVLTQSPASLAVSLGQRATISCKASQSVDYDGDSYMNWYQQKSGQPPKLLIYAASNLESGIPARFSGSGSGTDFTLNIHPVEEEDAATYYCQQSIQDPCTFGGGTELEIKGGGGSGGGGSGGGGSQVQLQQSGPELVKPGASVKMSCKASGYTFTDYVINWVKQRTGQGLEWIGEIYPGSGSDYYNENLKDKATLTADKSSNTAYMQLSSLTSEDSAVYFCARKGENGNSLAFAYWGQGTLVTVSAGGGGSGGGGSSPYSSDTTPCCFAYIARPLPRAHIKEYFYTSGKCSNPAVVFVTRKNRQVCANPEKKWVREYINSLQMSHHHHHH
notes: Expressed in the periplasm of E. coli and also in CHO cells; also called antiCD4-RANTES
In the case of B1, the binding result with CD4 on human T cells [1] and in the assay with human CCR5 was “binds” throughout.

B2: RM construct (RANTES-linker-(VH) anti-CD4-linker-(VL) anti-CD4) (other)
chain: SPYSSDTTPCCFAYIARPLPRAHIKEYFYTSGKCSNPAVVFVTRKNRQVCANPEKKWVREYINSLQMSSGGGGSGGGGSDIQLQQSGPELVKPGASVKMSCKASGYTFTDYVINWVKQRTGQGLEWIGEIYPGSGSDYYNENLKDKATLTADKSSNTAYMQLSSLTSEDSAVYFCARKGENGNSLAFAYWGQGTLVTVSAGGGGSGGGGSGGGGDIVLTQSPASLAVSLGQRATISCKASQSVDYDGDSYMNWYQQKSGQPPKLLIYAASNLESGIPARFSGSGSGTDFTLNIHPVEEEDAATYYCQQSIQDPCTFGGGTELEIKHHHHHH
notes: also called RANTES-antiCD4; RANTES-anti-CD4
B2: the binding result with CD4 on human T cells [2] and with human CCR5 was “binds” throughout.

The record behind these values is patent US20060078537A1 (published 2006).
